Consider 1 molecule from patent US20110212110A1 (INNATE PHARMA, published 2011).

The target in test [1] is T1, human TLR4 expressed in 293T cells (293T-TLR4 transfectants) (human, UniProt O00206 24-839).
T1 construct: also called Toll-Like Receptor 4
The test can be described thus: IHC on paraffin-embedded cell pellet, ENVISION amplification. The protocol:
40F9.6 was tested on tonsil tissue with different detection systems, in order to identify the detection system yielding the strongest signal, with the lowest […]. The ENVISION System commercialized by DAKO A/S (Glostrup, Denmark) was selected. ENVISION is an amplification system based on an HRP-labeled polymer conjugated to secondary antibodies. Tissue sections were dewaxed and rehydrated before the antigen unmasking procedure in boiled citrate buffer (pH6). Endogenous peroxydases were blocked by a 3% solution of H₂O₂.
40F9.6 was tested in a series of paraffin-embedded samples.

Test [2] deals with T2, recombinant human His-tagged TLR3 extracellular domain protein (R&D systems, #1487-TR-050) (human, UniProt O15455 24-704).
T2 construct: Bought protein; also called recombinant human TLR3; rec TLR3; not shown: His tag
The test can be described thus: ELISA, His-tagged TLR3 or TLR4 on Ni-NTA plates, hybridoma supernatant, goat anti-mouse F(ab) IgG-HRP. The text has this: Immune spleen cells were fused with X63.Ag8.653 immortalized B cells, and cultured in the presence of irradiated spleen cells. 40 culture plates were obtained and evaluated in a first screen for TLR3 binding using an ELISA developed for detection of binding to TLR3. Briefly, His-tagged recombinant TLR3 protein (R&D systems, #1487-TR-050) was coated on Ni-NTA 96-wells plates (Qiagen). […] Positive supernatants were selected and tested for lack of binding to TLR4. Briefly, His-tagged rec TLR4 protein (R&D systems, #3146-TR-050) were coated on Ni-NTA 96-wells plates (Qiagen). […] TLR4 was chosen as a 2nd screen in order to discriminate among wells selected in the 1st screen, where anti-His specific antibody from TLR3 specific antibody were used.
Cloning of hybridomas of potential interest. 42 potentially interesting hybridomas selected from the initial screening were cloned by limiting dilution techniques in 96-wells plates, and 304 subclones were tested in a series of screens as follows. […] All supernatants yielding a ratio above 10 for DO obtained in TLR3 ELISA to DO obtained in TLR4 ELISA were selected as specific for TLR3. Among them was supernatant from well F9 of plate 40 (40F9).
On the technique in general: ELISA stands for enzyme-linked immunosorbent assay.

B1: monoclonal antibody 40F9 (clone 40F9.6) (antibody, mouse IgG1, V domains shown)
VH: QIQLVQSGPELKKPGETVKISCKASGYTFTNYGMNWVKQAPGKGLKWMGWINANTGEPTYAEEFKGRFAFSLETSDSTAYLQINNLKNEDTATYFCASDYDYWGQGTTLTVSS
VL: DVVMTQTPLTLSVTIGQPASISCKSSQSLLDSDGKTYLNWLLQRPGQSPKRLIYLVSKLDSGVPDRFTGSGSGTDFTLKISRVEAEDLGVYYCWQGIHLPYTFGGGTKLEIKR
notes: Mouse hybridoma antibody (Balb/c); also called supernatant from well F9 of plate 40
As for B1, the binding result in test [1] was “no binding (tested: 10 µg/ml)”. The “ratio of DO obtained in TLR3 ELISA to DO obtained in TLR4 ELISA” value in test [2] worked out at 10.
